Common to all, as to test: EMSA; Probes: 400 fmol RNA, 17 ug protein, 1x binding buffer (Molecular Probes E33075 kit), room temp 30 min, 5% native PAGE, SYBR Green; pre-mRNA: 500 ng RNA in 10 mM HEPES, 150 mM NaCl, 3 mM EDTA, 2 mM DTT, 10% glycerol, 1 mM PMSF, room temp 30 min; pH not stated
Conditions in all cases: protein: recombinant; tags: N-terminal His6-SUMO
(A gel shift assay detects complexes by their altered migration in electrophoresis.)

Series [1] concerns the target T1, GRP20 (Arabidopsis thaliana, UniProt Q7DV38 1-153).
T1 sequence: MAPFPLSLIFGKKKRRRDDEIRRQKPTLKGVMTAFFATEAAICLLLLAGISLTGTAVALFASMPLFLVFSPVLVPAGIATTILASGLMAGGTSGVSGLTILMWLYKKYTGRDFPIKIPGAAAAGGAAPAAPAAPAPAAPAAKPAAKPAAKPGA

Series [2] deals with T2, GRP20ΔRBD (Arabidopsis thaliana, UniProt Q7DV38 1-153, del92-115).
T2 sequence: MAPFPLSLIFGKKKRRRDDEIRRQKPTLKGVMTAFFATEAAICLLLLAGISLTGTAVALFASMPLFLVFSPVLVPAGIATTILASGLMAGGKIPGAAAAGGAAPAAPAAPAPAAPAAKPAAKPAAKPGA

The target in series [3] is T3, GRP20 (RBDm) (Arabidopsis thaliana, UniProt Q7DV38 1-153, M102A;W103A;Y105A;K106A;K107A).
T3 sequence: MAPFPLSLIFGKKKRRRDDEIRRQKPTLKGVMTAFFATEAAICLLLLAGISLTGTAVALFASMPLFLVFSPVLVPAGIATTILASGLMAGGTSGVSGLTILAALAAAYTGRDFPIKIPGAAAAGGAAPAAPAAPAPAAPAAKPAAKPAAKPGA

The target in series [4] is T4, GRP20ΔHDR (Arabidopsis thaliana, UniProt Q7DV38 1-118).
T4 sequence: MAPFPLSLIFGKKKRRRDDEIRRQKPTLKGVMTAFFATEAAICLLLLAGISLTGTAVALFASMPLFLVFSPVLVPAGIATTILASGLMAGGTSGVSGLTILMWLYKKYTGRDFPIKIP

Results on 5 molecules are retold here after publication PMC10808074, “Regulation of micro- and small-exon retention and other splicing processes by GRP20 for flower development”.

As for AUGAUAAUGCC (ssRNA) [AP1m-probe], the binding result in series [1] is listed as “no binding”.
Still for that read-out and setting: as for AGGAGAAGGCC (ssRNA) [AP1-probe], the entry is “binds”; as for AUAUAUCUUU (ssRNA) [P3 (A3SS)], “binds”.
For the molecule GAAGAAGAAGAAG (ssRNA) [P1 (GA-rich consensus ES_C1)], the binding result in series [2] is “no binding”; in series [3], “no binding”; in series [4], “binds”; in series [1], “binds”.
For UUGAUUAUGU (ssRNA) [P2 (ES_C2)], the binding result in series [1] was “binds”.
